Measurements reported in the supplement of paper PMC10567573.

B1: NP_006221.1 (parent)
chain: CQPISFSGFGAEDDDLGGLGLGP
B2: CDKN1A (parent)
chain: RRQTSMTDFYHSKRRLIFSKRKP

Variants of: B1
Experiment: protein stability index of a GFP-peptide fusion (GPS, HEK-293T) (PSI 1-6); higher = more stable
Details: c terminus: native

Point of comparison: CDPISFSGFGAEDDDLGGLGLGP, protein stability index 2.51. Against it:
- CNPISFSGFGAEDDDLGGLGLGP — lower, 2.31
- CRPISFSGFGAEDDDLGGLGLGP — lower, 2.17
- CFPISFSGFGAEDDDLGGLGLGP — lower, 1.99
- CMPISFSGFGAEDDDLGGLGLGP — lower, 2.16
- CGPISFSGFGAEDDDLGGLGLGP — lower, 2.1
- CEPISFSGFGAEDDDLGGLGLGP — lower, 2.43
- CCPISFSGFGAEDDDLGGLGLGP — lower, 2.14
- CKPISFSGFGAEDDDLGGLGLGP — lower, 2.22
- CPPISFSGFGAEDDDLGGLGLGP — lower, 2.19
- CIPISFSGFGAEDDDLGGLGLGP — lower, 2.16
- CSPISFSGFGAEDDDLGGLGLGP — higher, 2.64
- CAPISFSGFGAEDDDLGGLGLGP — lower, 1.98
- CWPISFSGFGAEDDDLGGLGLGP — lower, 2.13
- CTPISFSGFGAEDDDLGGLGLGP — lower, 2.16
- CHPISFSGFGAEDDDLGGLGLGP — lower, 2.26
- CLPISFSGFGAEDDDLGGLGLGP — the same, 2.51
- CVPISFSGFGAEDDDLGGLGLGP — lower, 1.98
- CYPISFSGFGAEDDDLGGLGLGP — lower, 2.09
- CQCISFSGFGAEDDDLGGLGLGP — lower, 2.12
- CQAISFSGFGAEDDDLGGLGLGP — lower, 2.19
- MQPISFSGFGAEDDDLGGLGLGP — lower, 2.34
- TQPISFSGFGAEDDDLGGLGLGP — lower, 2.14
- PQPISFSGFGAEDDDLGGLGLGP — lower, 2.33
- EQPISFSGFGAEDDDLGGLGLGP — higher, 2.53
- SQPISFSGFGAEDDDLGGLGLGP — lower, 2.17
- RQPISFSGFGAEDDDLGGLGLGP — lower, 2.31
- DQPISFSGFGAEDDDLGGLGLGP — higher, 2.57
- LQPISFSGFGAEDDDLGGLGLGP — lower, 1.97
- KQPISFSGFGAEDDDLGGLGLGP — lower, 2.06
- FQPISFSGFGAEDDDLGGLGLGP — higher, 2.6
- NQPISFSGFGAEDDDLGGLGLGP — lower, 2.28
- YQPISFSGFGAEDDDLGGLGLGP — lower, 2.18
- GQPISFSGFGAEDDDLGGLGLGP — lower, 2.41
- IQPISFSGFGAEDDDLGGLGLGP — lower, 2.12
- WQPISFSGFGAEDDDLGGLGLGP — lower, 1.91
- AQPISFSGFGAEDDDLGGLGLGP — lower, 2.11
- VQPISFSGFGAEDDDLGGLGLGP — lower, 2.27
- HQPISFSGFGAEDDDLGGLGLGP — lower, 2.17
- QQPISFSGFGAEDDDLGGLGLGP — lower, 2.37

Variants of: B2
Experiment: as above
Details: c terminus: native

Point of comparison: RRQTSMTDFYHSKRRLIFSKIKP, protein stability index 4.52. Against it:
- RRQTSMTDFYHSKRRLIFSKKKP — lower, 3.61
- RRQTSMTDFYHSKRRLIFSKNKP — lower, 2.79
- RRQTSMTDFYHSKRRLIFSKTKP — lower, 3.55
- RRQTSMTDFYHSKRRLIFSKFKP — lower, 2.03
- RRQTSMTDFYHSKRRLIFSKPKP — lower, 2.73
- RRQTSMTDFYHSKRRLIFSKGKP — lower, 3.01
- RRQTSMTDFYHSKRRLIFSKYKP — lower, 2.97
- RRQTSMTDFYHSKRRLIFSKAKP — lower, 2.5
- RRQTSMTDFYHSKRRLIFSKQKP — lower, 2.4
- RRQTSMTDFYHSKRRLIFSKEKP — lower, 3.44
- RRQTSMTDFYHSKRRLIFSKMKP — lower, 3.37
- RRQTSMTDFYHSKRRLIFSKCKP — lower, 3.54
- RRQTSMTDFYHSKRRLIFSKSKP — lower, 3.09
- RRQTSMTDFYHSKRRLIFSKVKP — lower, 3.09
- RRQTSMTDFYHSKRRLIFSKLKP — lower, 2.67
- RRQTSMTDFYHSKRRLIFSKRKD — lower, 2.49
- RRQTSMTDFYHSKRRLIFSKRKC — lower, 3.15
- RRQTSMTDFYHSKRRLIFSKRKF — lower, 2.76
- RRQTSMTDFYHSKRRLIFSKRKY — lower, 3.15
- RRQTSMTDFYHSKRRLIFSKRKG — lower, 2.48
- RRQTSMTDFYHSKRRLIFSKRKL — lower, 2.84
- RRQTSMTDFYHSKRRLIFSKRKW — lower, 3.55
- RRQTSMTDFYHSKRRLIFSKRKV — lower, 2.57
- RRQTSMTDFYHSKRRLIFSKRKK — lower, 2.95
- RRQTSMTDFYHSKRRLIFSKRKA — lower, 1.85
- RRQTSMTDFYHSKRRLIFSKRKI — lower, 2.74
- RRQTSMTDFYHSKRRLIFSKRKM — lower, 2.46
- RRQTSMTDFYHSKRRLIFSSRKP — lower, 2.23
- RRQTSMTDFYHSKRRLIFSERKP — lower, 2.33
- RRQTSMTDFYHSKRRLIFSARKP — lower, 2.73
- RRQTSMTDFYHSKRRLIFSRRKP — lower, 2.21
- RRQTSMTDFYHSKRRLIFSVRKP — lower, 2.1
- RRQTSMTDFYHSKRRLIFSFRKP — lower, 2.31
- RRQTSMTDFYHSKRRLIFSMRKP — lower, 1.81
- RRQTSMTDFYHSKRRLIFSYRKP — lower, 1.9
- RRQTSMTDFYHSKRRLIFSNRKP — lower, 1.03
- RRQTSMTDFYHSKRRLIFSPRKP — lower, 1.54
- RRQTSMTDFYHSKRRLIFWKRKP — lower, 1.71
- RRQTSMTDFYHSKRRLIFQKRKP — lower, 2.08
- RRQTSMTDFYHSKRRLIFYKRKP — lower, 2.84
- RRQTSMTDFYHSKRRLIFRKRKP — lower, 2.46
- RRQTSMTDFYHSKRRLIFTKRKP — lower, 1.77
- RRQTSMTDFYHSKRRLIFSKRVP — lower, 3.36
- RRQTSMTDFYHSKRRLIFSKRYP — lower, 2.55
- RRQTSMTDFYHSKRRLIFSKRNP — lower, 3.35
- RRQTSMTDFYHSKRRLIFSKRIP — lower, 2.35
- RRQTSMTDFYHSKRRLIFSKRWP — lower, 2.91
- RRQTSMTDFYHSKRRLIFSKRLP — lower, 1.74
- RRQTSMTDFYHSKRRLIFSKRQP — lower, 2.42
- RRQTSMTDFYHSKRRLIFSKRSP — lower, 3.2
- RRQTSMTDFYHSKRRLIFSKRRP — lower, 4.35
- RRQTSMTDFYHSKRRLIFSKRTP — lower, 2.58
- RRQTSMTDFYHSKRRLIFSKRAP — lower, 1.72
- RRQTSMTDFYHSKRRLIFSKRFP — lower, 1.77
- RRQTSMTDFYHSKRRLIFSKRDP — lower, 1.85
- RRQTSMTDFYHSKRRLIFSKRMP — lower, 3.93
